According to patent US20210309709A1 (AKSTON BIOSCIENCES, published 2021):

biological target: T1, biotinylated human complement component C1q (Sigma-Aldrich) (human, UniProt P02745 23-245; P02746 28-253; P02747 29-245); assay: ELISA, fusion coated, biotinylated human C1q at 1000 ng/mL
T1 construct: Sigma-Aldrich', a protein complex; also called complement component 1q; biotinylated-C1q
T1 sequence (P02745 23-245 limits assumed, chain 1 of 3): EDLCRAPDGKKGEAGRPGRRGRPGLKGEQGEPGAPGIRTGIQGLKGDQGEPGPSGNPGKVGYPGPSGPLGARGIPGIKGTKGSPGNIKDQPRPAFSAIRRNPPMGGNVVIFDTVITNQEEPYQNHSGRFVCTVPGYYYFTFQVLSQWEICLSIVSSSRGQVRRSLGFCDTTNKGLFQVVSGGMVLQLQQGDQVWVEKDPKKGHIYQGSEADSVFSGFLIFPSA
T1 sequence (P02746 28-253 limits assumed, chain 2 of 3): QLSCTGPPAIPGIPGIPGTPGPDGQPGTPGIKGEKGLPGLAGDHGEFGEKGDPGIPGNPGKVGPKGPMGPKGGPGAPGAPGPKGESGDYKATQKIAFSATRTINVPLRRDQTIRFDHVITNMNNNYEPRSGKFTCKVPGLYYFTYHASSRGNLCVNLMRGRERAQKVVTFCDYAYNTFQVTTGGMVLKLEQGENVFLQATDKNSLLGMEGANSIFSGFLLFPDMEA
T1 sequence (P02747 29-245 limits assumed, chain 3 of 3): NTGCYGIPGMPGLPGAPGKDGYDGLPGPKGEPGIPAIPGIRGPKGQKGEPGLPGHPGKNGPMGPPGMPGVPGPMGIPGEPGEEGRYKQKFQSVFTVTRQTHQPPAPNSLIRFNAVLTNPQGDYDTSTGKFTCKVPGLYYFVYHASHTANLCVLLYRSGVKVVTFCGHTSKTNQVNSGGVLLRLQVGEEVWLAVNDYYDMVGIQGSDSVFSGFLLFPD

Binder	OD450 Ratio to SEQ ID NO: 76
insulin-Fc fusion protein of SEQ ID NO: 75 (Fc fusion, HEK293, Protein A; also called hIgG2) FVNQHLCGSHLVEALELVCGERGFHYGGGGGGSGGGGGIVEQCCTSTCSLDQLENYCGGGGGQGGGGQGGGGQGGGGGECPPCPAPPVAGPSVFLFPPKPKDTLMISRTPEVTCVVVDVSHEDPEVQFNWYVDGVEVHNAKTKPREEQFNSTFRVVSVLTVVHQDWLNGKEYKCKVSNKGLPAPIEKTISKTKGQPREPQVYTLPPSREEMTKNQVSLTCLVKGFYPSDIAVEWESNGQPENNYKTTPPMLDSDGSFFLYSKLTVDKSRWQQGNVFSCSVMHEALHNHYTQKSLSLSPG	0.309 ratio

biological target: T2, biotinylated recombinant human Fc(gamma)RI (R&D Systems) (human, UniProt P12314 16-288); assay: ELISA, fusion coated, biotinylated rhFc(gamma)RI at 3000 ng/mL
T2 construct: soluble in ELISA; also called rhFc(gamma)RI; Fc(gamma) receptor I
T2 sequence (P12314 16-288 limits assumed): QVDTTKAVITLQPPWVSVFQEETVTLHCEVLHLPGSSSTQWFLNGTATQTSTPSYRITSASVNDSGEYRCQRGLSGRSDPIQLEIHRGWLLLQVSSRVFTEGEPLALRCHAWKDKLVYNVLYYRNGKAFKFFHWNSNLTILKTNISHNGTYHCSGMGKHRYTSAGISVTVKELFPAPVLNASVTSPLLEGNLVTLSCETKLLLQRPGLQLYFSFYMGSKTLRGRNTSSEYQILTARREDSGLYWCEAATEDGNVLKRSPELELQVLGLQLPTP
Protocol: (§1) The binding of insulin-Fc fusion proteins to the Fc(gamma)RI at pH 7.4 is conducted using an ELISA assay as follows using human Fc(gamma)RI (i.e., rhFc(gamma)RI). Insulin-Fc fusion proteins are diluted to 10 μg/mL in sodium bicarbonate buffer at pH 9.6 and coated on Maxisorp (Nunc) microtiter plates overnight at 4° C., after which the microplate strips are washed 5 times with PBST (PBS/0.05% Tween-20) buffer and blocked with Superblock blocking reagent (ThermoFisher). Serial dilutions of biotinylated rhFc(gamma)RI (recombinant human Fc(gamma)RI; R&D Systems) are prepared in PBST/10% Superblock buffer from 3000 ng/mL to 4.1 ng/mL and loaded at 100 μL/well onto the microplate strips coated with insulin-Fc fusion protein. The microtiter plate is incubated for 1 hour at room temperature after which time the microplate strips are washed 5 times with PBST and then loaded with 100 μL/well of streptavidin-HRP diluted 1:10000 in PBST/10% Superblock buffer. After incubating for 45 min, the microplate strips are washed again 5 times with PBST. TMB is added to reveal the bound Fc(gamma)RI proteins and is stopped with ELISA stop reagent (Boston Bioproducts). The plate is read in an ELISA plate reader at 450 nm, and the OD450 values (proportional to the binding of rhFc(gamma)RI to insulin-Fc protein) are plotted against log concentrations of rhFc(gamma)RI added to each well to generate binding curves using GraphPad Prism software. For groupings of compounds with somewhat similar curves, the OD450 at one of the higher concentrations, for instance at rhFc(gamma)RI concentrations of 3000 ng/mL, can be used to identify differences between coated insulin-Fc fusion protein compounds. […]
Finally, select compounds were tested for their likelihood to interact with the immune system by measuring their Fc(gamma) receptor binding activity according to the procedure of Example 15.

Binder	OD450 nm	OD450 nm minus assay background	ratio to SEQ ID NO: 36
insulin-Fc fusion protein of SEQ ID NO: 36 (Fc fusion, native N-glycosylation site cNg-NB139, HEK293, Protein A) FVNQHLCGSDLVEALALVCGERGFFYTDPTGGGPRRGIVEQCCHSICSLYQLENYCNGGGGAGGGGDCPKCPAPEMLGGPSVFIFPPKPKDTLLIARTPEVTCVVVDLDPEDPEVQISWFVDGKQMQTAKTQPREEQFNGTYRVVSVLPIGHQDWLKGKQFTCKVNNKALPSPIERTISKARGQAHQPSVYVLPPSREELSKNTVSLTCLIKDFFPPDIDVEWQSNGQQEPESKYRTTPPQLDEDGSYFLYSKLSVDKSRWQRGDTFICAVMHEALHNHYTQESLSHSPG	0.428 OD450	0.371 OD450	1 ratio
insulin-Fc fusion protein of SEQ ID NO: 26 (Fc fusion, native N-glycosylation site cNg-NB151) FVNQHLCGSHLVEALELVCGERGFHYGGGGGGSGGGGGIVEQCCTSTCSLDQLENYCGGGGGQGGGGQGGGGQGGGGGDCPKCPAPEMLGGPSVFIFPPKPKDTLLIARTPEVTCVVVDLDPEDPEVQISWFVDGKQMQTAKTQPREEQFNGTYRVVSVLPIGHQDWLKGKQFTCKVNNKALPSPIERTISKARGQAHQPSVYVLPPSREELSKNTVSLTCLIKDFFPPDIDVEWQSNGQQEPESKYRTTPPQLDEDGSYFLYSKLSVDKSRWQRGDTFICAVMHEALHNHYTQESLSHSPG	0.368 OD450	0.311 OD450	0.84 ratio
insulin-Fc fusion protein of SEQ ID NO: 62 (Fc fusion, also called cNg-NB151-S) FVNQHLCGSHLVEALELVCGERGFHYGGGGGGSGGGGGIVEQCCTSTCSLDQLENYCGGGGGQGGGGQGGGGQGGGGGDCPKCPAPEMLGGPSVFIFPPKPKDTLLIARTPEVTCVVVDLDPEDPEVQISWFVDGKQMQTAKTQPREEQFSGTYRVVSVLPIGHQDWLKGKQFTCKVNNKALPSPIERTISKARGQAHQPSVYVLPPSREELSKNTVSLTCLIKDFFPPDIDVEWQSNGQQEPESKYRTTPPQLDEDGSYFLYSKLSVDKSRWQRGDTFICAVMHEALHNHYTQESLSHSPG	0.175 OD450	0.118 OD450	0.32 ratio
insulin-Fc fusion protein of SEQ ID NO: 30 (Fc fusion) FVNQHLCGSHLVEALALVCGERGFHYGGGGGGSGGGGGIVEQCCTSTCSLDQLENYCGGGGGQGGGGQGGGGQGGGGGDCPKCPAPEMLGGPSVFIFPPKPKDTLLIARTPEVTCVVVDLDPEDPEVQISWFVDGKQMQTAKTQPREEQFSGTYRVVSVLPIGHQDWLKGKQFTCKVNNKALPSPIERTISKARGQAHQPSVYVLPPSREELSKNTVSLTCLIKDFFPPDIDVEWQSNGQQEPESKYRTTPPQLDEDGSYFLYSKLSVDKSRWQRGDTFICAVMHEALHNHYTQESLSHSPG	0.177 OD450	0.12 OD450	0.32 ratio

Results, then the binder that gave them:

OD450 nm	OD450 nm minus assay background	ratio to SEQ ID NO: 36	Binder
0.166 OD450	0.109 OD450	0.29 ratio	insulin-Fc fusion protein of SEQ ID NO: 61 (Fc fusion, also called cNg-NB151-S, NB119-A) FVNQHLCGSHLVEALELVCGERGFHYGGGGGGSGGGGGIVEQCCTSTCSLDQLENYCGGGGGQGGGGQGGGGQGGGGGDCPKCPAPEMLGGPSVFIFPPKPKDTLLIARTPEVTCVVVALDPEDPEVQISWFVDGKQMQTAKTQPREEQFSGTYRVVSVLPIGHQDWLKGKQFTCKVNNKALPSPIERTISKARGQAHQPSVYVLPPSREELSKNTVSLTCLIKDFFPPDIDVEWQSNGQQEPESKYRTTPPQLDEDGSYFLYSKLSVDKSRWQRGDTFICAVMHEALHNHYTQESLSHSPG
0.253 OD450	0.196 OD450	0.53 ratio	insulin-Fc fusion protein of SEQ ID NO: 58 (Fc fusion, purified on Protein A or Protein G) FVNQHLCGSHLVEALELVCGERGFHYGGGGGGSGGGGGIVEQCCTSTCSLDQLENYCGGGGGQGGGGQGGGGQGGGGGRCTDTPPCPVPEPLGGPSVLIFPPKPKDILRITRTPEVTCVVLDLGREDPEVQISWFVDGKEVHTAKTQSREQQFNGTYRVVSVLPIEHQDWLTGKEFKCRVNHIDLPSPIERTISKARGRAHKPSVYVLPPSPKELSSSDTVSITCLIKDFYPPDIDVEWQSNGQQEPERKHRMTPPQLDEDGSYFLYSKLSVDKSRWQQGDPFTCAVMHETLQNHYTDLSLSHSPG

biological target: T2, biotinylated recombinant human …; assay: as above; remark: another data set of the same source
Protocol: The binding of insulin-Fc fusion proteins to the Fc(gamma)RI at pH 7.4 was conducted using an ELISA assay as follows using human Fc(gamma)RI (i.e., rhFc(gamma)RI). Insulin-Fc fusion proteins were diluted to 10 μg/mL in sodium bicarbonate buffer at pH 9.6 and coated on Maxisorp (Nunc) microtiter plates overnight at 4° C., after which the microplate strips were washed 5 times with PBST (PBS/0.05% Tween-20) buffer and blocked with Superblock blocking reagent (ThermoFisher). […] The plate was read in an ELISA plate reader at 450 nm, and the OD450 values (proportional to the binding of rhFc(gamma)RI to insulin-Fc protein) were plotted against log concentrations of rhFc(gamma)RI added to each well to generate binding curves using GraphPad Prism software. […] In order to compare differences across multiple insulin-Fc fusion proteins run at different times, the human Fc(gamma)RI assay OD450 Ratio was calculated as the OD450 value of a test insulin-Fc fusion protein compound obtained at a biotinylated-Fc(gamma)RI concentration of 3000 ng/mL, divided by the OD450 value of a reference insulin-Fc fusion protein of SEQ ID NO: 76 obtained at a biotinylated-Fc(gamma)RI concentration of 3000 ng/mL.

Binder	OD450 Ratio to SEQ ID NO: 76
insulin-Fc fusion protein of SEQ ID NO: 75 (Fc fusion, HEK293, Protein A; also called hIgG2) FVNQHLCGSHLVEALELVCGERGFHYGGGGGGSGGGGGIVEQCCTSTCSLDQLENYCGGGGGQGGGGQGGGGQGGGGGECPPCPAPPVAGPSVFLFPPKPKDTLMISRTPEVTCVVVDVSHEDPEVQFNWYVDGVEVHNAKTKPREEQFNSTFRVVSVLTVVHQDWLNGKEYKCKVSNKGLPAPIEKTISKTKGQPREPQVYTLPPSREEMTKNQVSLTCLVKGFYPSDIAVEWESNGQPENNYKTTPPMLDSDGSFFLYSKLTVDKSRWQQGNVFSCSVMHEALHNHYTQKSLSLSPG	0.045 ratio

biological target: T2, biotinylated recombinant human …; assay: ELISA, fusion coated, biotinylated rhFc(gamma)RI (concentration not clear from the table head)
Protocol: as §1

Binder	OD450 nm	OD450 nm minus assay background	ratio to SEQ ID NO: 36
insulin-Fc fusion protein of SEQ ID NO: 36 (Fc fusion, native N-glycosylation site cNg-NB139, HEK293, Protein A) FVNQHLCGSDLVEALALVCGERGFFYTDPTGGGPRRGIVEQCCHSICSLYQLENYCNGGGGAGGGGDCPKCPAPEMLGGPSVFIFPPKPKDTLLIARTPEVTCVVVDLDPEDPEVQISWFVDGKQMQTAKTQPREEQFNGTYRVVSVLPIGHQDWLKGKQFTCKVNNKALPSPIERTISKARGQAHQPSVYVLPPSREELSKNTVSLTCLIKDFFPPDIDVEWQSNGQQEPESKYRTTPPQLDEDGSYFLYSKLSVDKSRWQRGDTFICAVMHEALHNHYTQESLSHSPG	0.386 OD450	0.323 OD450	1 ratio
insulin-Fc fusion protein of SEQ ID NO: 40 (Fc fusion, non-glycosylated canine IgGB Fc; also called cNg-NB139-S; cNg-S) FVNQHLCGSDLVEALALVCGERGFFYTDPTGGGPRRGIVEQCCHSICSLYQLENYCNGGGGAGGGGDCPKCPAPEMLGGPSVFIFPPKPKDTLLIARTPEVTCVVVDLDPEDPEVQISWFVDGKQMQTAKTQPREEQFSGTYRVVSVLPIGHQDWLKGKQFTCKVNNKALPSPIERTISKARGQAHQPSVYVLPPSREELSKNTVSLTCLIKDFFPPDIDVEWQSNGQQEPESKYRTTPPQLDEDGSYFLYSKLSVDKSRWQRGDTFICAVMHEALHNHYTQESLSHSPG	0.14 OD450	0.077 OD450	0.24 ratio
insulin-Fc fusion protein of SEQ ID NO: 41 (Fc fusion, also called cNg-NB139-D; cNg-D) FVNQHLCGSDLVEALALVCGERGFFYTDPTGGGPRRGIVEQCCHSICSLYQLENYCNGGGGAGGGGDCPKCPAPEMLGGPSVFIFPPKPKDTLLIARTPEVTCVVVDLDPEDPEVQISWFVDGKQMQTAKTQPREEQFDGTYRVVSVLPIGHQDWLKGKQFTCKVNNKALPSPIERTISKARGQAHQPSVYVLPPSREELSKNTVSLTCLIKDFFPPDIDVEWQSNGQQEPESKYRTTPPQLDEDGSYFLYSKLSVDKSRWQRGDTFICAVMHEALHNHYTQESLSHSPG	0.204 OD450	0.141 OD450	0.44 ratio
insulin-Fc fusion protein of SEQ ID NO: 42 (Fc fusion, also called cNg-NB139-K; cNg-K) FVNQHLCGSDLVEALALVCGERGFFYTDPTGGGPRRGIVEQCCHSICSLYQLENYCNGGGGAGGGGDCPKCPAPEMLGGPSVFIFPPKPKDTLLIARTPEVTCVVVDLDPEDPEVQISWFVDGKQMQTAKTQPREEQFKGTYRVVSVLPIGHQDWLKGKQFTCKVNNKALPSPIERTISKARGQAHQPSVYVLPPSREELSKNTVSLTCLIKDFFPPDIDVEWQSNGQQEPESKYRTTPPQLDEDGSYFLYSKLSVDKSRWQRGDTFICAVMHEALHNHYTQESLSHSPG	0.126 OD450	0.063 OD450	0.2 ratio
